Experimental data reported in publication PMC3613824 (Cell Death & Disease, 2013).

Molecular target: MBP-DLC2 (dynein light chain-2 fused to maltose-binding protein) (UniProt Q96FJ2 1-89)
Experiment: pull-down

binding result: binds
B1: GST-MVaf1 (myosin-Va medial tail fragment 1, MYO5A 1276-1328 [+B], fused to glutathione-S-transferase) (domain or fragment)
chain: QKEAIQPKDDKNTMTDSTILLEDVQKMKDKGEIAQAYIGLKETNRSSALDYHE
